# From patent US20260232840A1 (UNIVERSITY OF BRITISH COLUMBIA, published 2026)
# B1: rabbit anti-SOD1 antibody A-7-58 H1/L1 (antibody, V domains shown)
# VH: QSVEESGGRLVTPGTPLTLTCTVSGIDLSSSVMAWVRQAPGKGLEWIGIITNRGNRYYAKWAKGRFTISRTSTTVGLKITSPTTADTATYFCGRGSVWGPGTLVTVSS
# VL: QVLTQTPASVSAAIGGTVTIKCQSSQSFLDDNDLAWYQKKPGRPPKRLIKSASTLDSGVPSRFSGSGSGTQFTLTISDVQCADAATYYCLGDYDCSVGDCSAFGGGTEVVVKG
# notes: Rabbit monoclonal antibody; also called A-58 H1 + A-58 L1
# B2: rabbit anti-SOD1 antibody A-7-63 H2/L1 (antibody)
# heavy: QSVGESGGGLVTPGTPLTLTCTVSGFSLSSYGVSWVRQAPGKGLEYIGFISTRGNPYYASWAKGRFTISKTSTTVDLKITSPTTEDTATYFCAGATVVGDSIWGPGTLVTVSSGQPKAPSVFPLAPCCGDTPSSTVTLGCLVKGYLPEPVTVTWNSGTLTNGVRTFPSVRQSSGLYSLSSVVSVTSSSQPVTCNVAHPATNTKVDKTVAPSTCSKPTCPPPELLGGPSVFIFPPKPKDTLMISRTPEVTCVVVDVSQDDPEVQFTWYINNEQVRTARPPLREQQFNSTIRVVSTLPIAHQDWLRGKEFKCKVHNKALPAPIEKTISKARGQPLEPKVYTMGPPREELSSRSVSLTCMINGFYPSDISVEWEKNGKAEDNYKTTPAVLDSDGSYFLYSKLSVPTSEWQRGDVFTCSVMHEALHNHYTQKSISRSPGK
# light: QVLTQTASSVSAAVGGTVTISCQSSQSVYKGYWQAWYQQKPGQPPKLLIYETSTLASGVPSRFSGSGSGTQFTLTISGVQCDDAATYYCAGGYSNNIYTFGGGTEVVVKGDPVAPTVLIFPPAADQVATGTVTIVCVANKYFPDVTVTWEVDGTTQTTGIENSKTPQNSADCTYNLSSTLTLTSTQYNSHKEYTCKVTQGTTSVVQSFNRGDC
# notes: Rabbit monoclonal antibody; also called A-63 H2 + A-63 L1
# B3: rabbit anti-SOD1 antibody A-7-63 H3/L1 (antibody)
# heavy: QSVEESGGGLVTPGTPLTLTCTVSGFSLSSYGVSWVRQAPGKGLEYIGFISTRGNPYYASWAKGRFTISKTSTTVDLKITSPTTEDTATYFCAGATVVGDSIWGPGTLVTVSSGQPKAPSVFPLAPCCGDTPSSTVTLGCLVKGYLPEPVTVTWNSGTLTNGVRTFPSVRQSSGLYSLSSVVSVTSSSQPVTCNVAHPATNTKVDKTVAPSTCSKPTCPPPELLGGPSVFIFPPKPKDTLMISRTPEVTCVVVDVSQDDPEVQFTWYINNEQVRTARPPLREQQFNSTIRVVSTLPIAHQDWLRGKEFKCKVHNKALPAPIEKTISKARGQPLEPKVYTMGPPREELSSRSVSLTCMINGFYPSDISVEWEKNGKAEDNYKTTPAVLDSDGSYFLYSKLSVPTSEWQRGDVFTCSVMHEALHNHYTQKSISRSPGK
# light: QVLTQTASSVSAAVGGTVTISCQSSQSVYKGYWQAWYQQKPGQPPKLLIYETSTLASGVPSRFSGSGSGTQFTLTISGVQCDDAATYYCAGGYSNNIYTFGGGTEVVVKGDPVAPTVLIFPPAADQVATGTVTIVCVANKYFPDVTVTWEVDGTTQTTGIENSKTPQNSADCTYNLSSTLTLTSTQYNSHKEYTCKVTQGTTSVVQSFNRGDC
# notes: Rabbit monoclonal antibody; also called A-63 H3 + A-63 L1
# How the values were obtained:
# aggregated SOD1 [1] = target: T1, aggregated SOD1 (UniProt P00441 2-154); assay: indirect ELISA; OD on aggregated SOD1 over OD on dimeric SOD1
# T1 construct: Same protein as Dim SOD1, in a different conformational state; also called Agg SOD1
# Procedure: (§1) Supernatants producing hybridoma cell cultures producing rabbit monoclonal antibodies are analyzed by indirect ELISA for antibody activity on plates coated with 1 μg/well of peptide or protein antigen. […] The binding of anti-SOD1 antibodies were also characterized by ratio analyzes.
# aggregated SOD1 [2] = target: T1, aggregated SOD1; assay: indirect ELISA; ratio of the EC50 values on aggregated and dimeric SOD1
# Procedure: as §1
# T1 sequence (P00441 2-154 limits assumed): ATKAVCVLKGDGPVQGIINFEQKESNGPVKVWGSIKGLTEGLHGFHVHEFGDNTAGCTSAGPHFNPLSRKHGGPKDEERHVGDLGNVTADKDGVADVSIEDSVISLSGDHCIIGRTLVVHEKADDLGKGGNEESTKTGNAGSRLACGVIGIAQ
Binder,Ab conc (ng/mL) at peak agg/dim OD ratio (aggregated SOD1 [1]),Peak agg/dim OD ratio (aggregated SOD1 [1]),Ratio Agg/Dim SOD1 EC50 (aggregated SOD1 [2])
B1,10.3 ng/mL,12.7,30.4
B2,6.01 ng/mL,10.7,26.7
B3,5.11 ng/mL,11.6,32.8
